From IntAct's records for PubMed 31515488

B1: Tektin-4 (Homo sapiens), Q8WW24 (parent)
chain: MAQTVPPCELPCKEYDVARNTGAYTSSGLATASFRTSKYLLEEWFQNCYARYHQAFADRDQSERQRHESQQLATETQALAQRTQQDSTRTVGERLQDTHSWKSELQREMEALAAETNLLLAQKQRLERALDATEVPFSITTDNLQCRERREHPNLVRDHVETELLKEAELIRNIQELLKRTIMQAVSQIRLNREHKETCEMDWSDKMEAYNIDETCGRHHSQSTEVQAHPYSTTFQESASTPETRAKFTQDNLCRAQRERLASANLRVLVDCILRDTSEDLRLQCDAVNLAFGRRCEELEDARYKLHHHLHKTLREITDQEHNVAALKQAIKDKEAPLHVAQTRLYLRSHRPNMELCRDAAQFRLLSEVEELNMSLTALREKLLEAEQSLRNLEDIHMSLEKDIAAMTNSLFIDRQKCMAHRTRYPTILQLAGYQ

Assays:
[1] = variants of: B1; conditions: with trip6_human TRIP6, Q15654
[2] = variants of: B1; conditions: with maga4_human MAGEA4, P43358
[3] = variants of: B1; conditions: with atg5_human ATG5, Q9H1Y0
Chain of atg5_human ATG5, Q9H1Y0 (Q9H1Y0 whole entry): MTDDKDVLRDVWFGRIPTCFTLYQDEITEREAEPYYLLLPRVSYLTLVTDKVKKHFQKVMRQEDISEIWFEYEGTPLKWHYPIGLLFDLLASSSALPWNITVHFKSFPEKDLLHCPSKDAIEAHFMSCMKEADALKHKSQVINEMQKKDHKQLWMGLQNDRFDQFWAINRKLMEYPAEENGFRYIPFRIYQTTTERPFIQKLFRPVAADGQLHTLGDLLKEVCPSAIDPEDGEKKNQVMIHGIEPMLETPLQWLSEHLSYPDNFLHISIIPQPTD

Chain of maga4_human MAGEA4, P43358 (P43358 whole entry): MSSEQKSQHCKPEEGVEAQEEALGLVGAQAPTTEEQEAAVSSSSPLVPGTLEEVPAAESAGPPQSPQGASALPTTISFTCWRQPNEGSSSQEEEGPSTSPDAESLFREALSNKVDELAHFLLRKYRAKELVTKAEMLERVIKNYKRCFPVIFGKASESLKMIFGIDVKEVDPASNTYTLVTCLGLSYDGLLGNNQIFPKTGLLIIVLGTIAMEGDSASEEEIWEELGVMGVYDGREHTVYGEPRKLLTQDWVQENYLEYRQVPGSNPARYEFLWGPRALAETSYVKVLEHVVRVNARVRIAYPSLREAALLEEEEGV
Chain of trip6_human TRIP6, Q15654 (Q15654 whole entry): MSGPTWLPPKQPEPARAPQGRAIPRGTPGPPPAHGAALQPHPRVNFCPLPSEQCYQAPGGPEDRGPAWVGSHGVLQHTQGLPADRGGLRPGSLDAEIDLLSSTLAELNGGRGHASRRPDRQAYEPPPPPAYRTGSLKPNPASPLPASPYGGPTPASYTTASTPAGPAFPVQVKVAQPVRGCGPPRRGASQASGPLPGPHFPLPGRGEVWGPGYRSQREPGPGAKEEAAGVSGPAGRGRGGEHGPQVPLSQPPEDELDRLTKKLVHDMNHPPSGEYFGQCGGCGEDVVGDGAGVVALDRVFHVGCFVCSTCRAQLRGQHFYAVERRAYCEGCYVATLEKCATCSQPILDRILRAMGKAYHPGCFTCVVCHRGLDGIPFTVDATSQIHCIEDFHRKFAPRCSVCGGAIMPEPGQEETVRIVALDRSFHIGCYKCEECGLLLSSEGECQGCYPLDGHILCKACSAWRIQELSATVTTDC

Variant	effect of a mutation on the interaction [1]	effect of a mutation on the interaction [2]	effect of a mutation on the interaction [3]
MAQTVPPCELPCKEYDVARNTGAYTSSGLATASFRTSKYLLEEWFQNCYARYHQAFADRDQSERQRHESQQLATETQALAQRTQQDSTRTVGERLQDTHSWKSELQREMEALAAETNLLLAQKQRLERALDATEVPFSITTDNLQCRERREHPNLVRDHVETELLKEAELIRNIQELLKRTIMQAVSQIRLNREHKETCEMDWSDKMEAYNIDETCGRHHSQSTEVQAHPYSTTFQESASTPETRAKFTQDNLCRAQRERLASANLRVLVDCILRDTSEDLRLQCDAVNLAFGRRCEELEDARYKLHHHLHKTLREITDQEHNVAALKQAIKDKEAPLHVAQTRLYLRSHRPNMELCRDAAQFRLLSEVEELNVSLTALREKLLEAEQSLRNLEDIHMSLEKDIAAMTNSLFIDRQKCMAHRTRYPTILQLAGYQ [M374V]	with no effect	with no effect	with no effect
MAQTVPPCELPCKEYDVARNTGAYTSSGLATASFRTSKYLLEEWFQNCYARYHQAFADRDQSERQRHESQQLATETQALAQRTQQDSTRTVGERLQDTHGWKSELQREMEALAAETNLLLAQKQRLERALDATEVPFSITTDNLQCRERREHPNLVRDHVETELLKEAELIRNIQELLKRTIMQAVSQIRLNREHKETCEMDWSDKMEAYNIDETCGRHHSQSTEVQAHPYSTTFQESASTPETRAKFTQDNLCRAQRERLASANLRVLVDCILRDTSEDLRLQCDAVNLAFGRRCEELEDARYKLHHHLHKTLREITDQEHNVAALKQAIKDKEAPLHVAQTRLYLRSHRPNMELCRDAAQFRLLSEVEELNMSLTALREKLLEAEQSLRNLEDIHMSLEKDIAAMTNSLFIDRQKCMAHRTRYPTILQLAGYQ [S100G]	with no effect	with no effect	with no effect
MAQTVPPCELPCKEYDVARNTGAYTSSGLATASFRTSKYLLEEWFQNCYARYHQAFADRDQSERQRHESQQLATETQALAQRMQQDSTRTVGERLQDTHSWKSELQREMEALAAETNLLLAQKQRLERALDATEVPFSITTDNLQCRERREHPNLVRDHVETELLKEAELIRNIQELLKRTIMQAVSQIRLNREHKETCEMDWSDKMEAYNIDETCGRHHSQSTEVQAHPYSTTFQESASTPETRAKFTQDNLCRAQRERLASANLRVLVDCILRDTSEDLRLQCDAVNLAFGRRCEELEDARYKLHHHLHKTLREITDQEHNVAALKQAIKDKEAPLHVAQTRLYLRSHRPNMELCRDAAQFRLLSEVEELNMSLTALREKLLEAEQSLRNLEDIHMSLEKDIAAMTNSLFIDRQKCMAHRTRYPTILQLAGYQ [T83M]	with no effect	with no effect	–
MAQTVPPCELPCKEYDVARNTGAYTSSGLATASFRTSKYLLEEWFQNCYARYHQAFADRDQSERQRHESQQLATETQALAQRTQQDSTRTVGERLQDTHSWKSELQREMEALAAETNLLLAQKQRLERALDATEVPFSITTDNLQCRERREHPNLVRDHVETELLKEAELIRNIQELLKRTIMQAVSQIRLNREHKETCEMDWSDKMEAYNIDETCGRHHSQSTEVQAHPYSTTFQESASTPETRAKFTQDNLCCAQRERLASANLRVLVDCILRDTSEDLRLQCDAVNLAFGRRCEELEDARYKLHHHLHKTLREITDQEHNVAALKQAIKDKEAPLHVAQTRLYLRSHRPNMELCRDAAQFRLLSEVEELNMSLTALREKLLEAEQSLRNLEDIHMSLEKDIAAMTNSLFIDRQKCMAHRTRYPTILQLAGYQ [R255C]	with no effect	with no effect	with no effect
MAQTVPPCELPCKEYDVARNTGAYTSSGLATASFRTSKYLLEEWFQNCYARYHQAFADRDQSERQRHESQQLATETQALAQRTQQDSTRTVGERLQDTHSWKSELQREMEALAAETNLLLAQKQRLERALDATEVPFSITTDNLQCRERREHPNLVRDHVETELLKEAELIRNIQELLKRTIMQAVSQIRLNREHKETCEMDWSDKMEAYNIDETCGRHHSQSTEVQAHPYSTTFQESASTPETRAKFTQDNLCRAQRERLASANLRVLVDSILRDTSEDLRLQCDAVNLAFGRRCEELEDARYKLHHHLHKTLREITDQEHNVAALKQAIKDKEAPLHVAQTRLYLRSHRPNMELCRDAAQFRLLSEVEELNMSLTALREKLLEAEQSLRNLEDIHMSLEKDIAAMTNSLFIDRQKCMAHRTRYPTILQLAGYQ [C272S]	with no effect	with no effect	–
MAQTVPPCELPCKEYDVARNTGAYTSSGLATASFRTSKYLLEEWFQNCYARYHQAFADRDQSERQRHESQQLATETQALAQCTQQDSTRTVGERLQDTHSWKSELQREMEALAAETNLLLAQKQRLERALDATEVPFSITTDNLQCRERREHPNLVRDHVETELLKEAELIRNIQELLKRTIMQAVSQIRLNREHKETCEMDWSDKMEAYNIDETCGRHHSQSTEVQAHPYSTTFQESASTPETRAKFTQDNLCRAQRERLASANLRVLVDCILRDTSEDLRLQCDAVNLAFGRRCEELEDARYKLHHHLHKTLREITDQEHNVAALKQAIKDKEAPLHVAQTRLYLRSHRPNMELCRDAAQFRLLSEVEELNMSLTALREKLLEAEQSLRNLEDIHMSLEKDIAAMTNSLFIDRQKCMAHRTRYPTILQLAGYQ [R82C]	with no effect	with no effect	with no effect
